Assay results reported in publication doi:10.1101/2022.03.10.483757 (bioRxiv, 2022).

Molecular target: the molecule itself
Test: crystal structure

B1: His6-tagged SFPQ-276–535 L534I (domain or fragment, human, UniProt P23246 276-535, looked up)
chain: EGFKANLSLLRRPGEKTYTQRCRLFVGNLPADITEDEFKRLFAKYGEPGEVFINKGKGFGFIKLESRALAEIAKAELDDTPMRGRQLRVRFATHAAALSVRNLSPYVSNELLEEAFSQFGPIERAVVIVDDRGRSTGKGIVEFASKPAARKAFERCSEGVFLLTTTPRPVIVEPLEQLDDEDGLPEKLAQKNPMYQKERETPPRFAQHGTFEYEYSQRWKSLDEMEKQQREQVEKNMKDAKDKLESEMEDAYHEHQANIL
B1: binds.
